Residue numbers refer to the chain shown, from its start. Names and notes keep the numbering of the source.
B1: wild-type NK1 fragment of HGF/SF (amino acids 28-210) (ligand)
chain: YAEGQRKRRNTIHEFKKSAKTTLIKIDPALKIKTKKVNTADQCANRCTRNKGLPFTCKAFVFDKARKQCLWFPFNSMSSGVKKEFGHEFDLYENKDYIRNCIIGKGRSYKGTVSITKSGIKCQPWSSMIPHEHSFLPSSYRGKDLQENYCRNPRGEEGGPWCFTSNPEVRYEVCDIPQCSEVE
notes: Expressed in P. pastoris; Forms a head-to-tail dimer in the crystals and a heparin-dependent dimer in solution; also called wt-NK1; wt NK1
B2: NK1 mutant 1K1 (K132E:R134E) (ligand)
chain: B1 chain with K105E, R107E
notes: K domain reverse-charge mutant of NK1
B3: NK1 mutant 1K2 (K170E:R181E) (ligand)
chain: B1 chain with K143E, R154E
notes: as for B2
B4: NK1 mutant HP11 (R73E:R76E) (ligand)
chain: B1 chain with R46E, R49E
notes: N domain reverse-charge mutant of NK1; Expressed in P. pastoris

Tests used:
[1] = biological target: the molecule itself; assay: X-ray crystal structure of the NK1-heparin complex, crystal type A; self-association
[2] = biological target: the molecule itself; assay: BS3 cross-linking with western blot, and gel filtration, with equimolar 14-mer heparin; self-association
Description: (§1) This was carried out by gel filtration chromatography and cross-linking experiments. For gel filtration, wt- or mutant NK1 (0.5 mg/ml) were incubated for 2 hours in the presence or absence of equimolar concentration of 14-mer heparin in phosphate buffered saline (PBS) adjusted to 300 mM NaCl. Samples were then loaded onto an HR30 Superdex 200 column (Ammersham Pharmacia Biotech) and eluted at 0.5 ml/min.
(§2) For cross-linking, 10 μl of wt- or mutant-NK1 (0.1 mg/ml) were incubated in the absence or presence of an equimolar concentration of 14-mer heparin in PBS. After 2 hours incubation at room temperature, 1 μl of crosslinker (BS³, Pierce) was added at 100 fold molar excess, the reaction was continued for 30 minutes and then quenched with 1 μl of 1M Tris-Cl, pH 7.4. Reaction products were loaded onto 15% SDS-polyacrylamide gels and blotted onto a nitrocellulose membrane (Schleicher & Schuell). […] HRP activity was detected after 3 further washes in PBS+0.2% Tween 20 using a chemiluminescent substrate (Pierce).
(§3) Cross-linking (Schwall et al., 1996) and gel filtration (Chirgadze et al., 1999) experiments were employed first in order to characterize heparin-mediated oligomerization of wt NK1 in solution. […] Cross-linked proteins were analyzed by western blotting and detected with an anti-HGF/SF polyclonal antibody (1W53). […]

[3] = biological target: the molecule itself; assay: BS3 cross-linking with western blot, and gel filtration (Superdex 200), with equimolar 14-mer heparin; self-association
Description: as §1, §2, §3

| Protein | binding result [2] | also measured |
| --- | --- | --- |
| B1 | – | binding result [1]: binds |
| B2 | binds | – |
| B3 | binds | – |
| B4 | – | binding result [3]: no binding |

— patent publication US20040236073A1 (MEDICAL RESEARCH COUNCIL, published 2004)
